The source of these data is patent US20230348616A1 (MIE UNIVERSITY, published 2023).

For assay [1], the target named is T1, HLA-A2 / homologous peptide DOLPP1 complex on T2 cells (human).
T1 construct: whole, on cells; also called T2 cells supplemented with homologous peptide DOLPP1
Nature of the assay: flow cytometry, peptide-pulsed T2 cells.

The target of assay [2] is T2, HLA-A2 / homologous peptide IL20RB complex on T2 cells (human).
T2 construct: whole, on cells; also called T2 cells supplemented with homologous peptide IL20RB
Nature of the assay: flow cytometry, peptide-pulsed T2 cells.

For assay [3], the target named is T3, HLA-A2 / homologous peptide PRKD2 complex on T2 cells (human).
T3 construct: whole, on cells; also called T2 cells supplemented with homologous peptide PRKD2
The experiment in a line: flow cytometry, peptide-pulsed T2 cells.

The target in assay [4] is T4, HLA-A2 / homologous peptide CD163 complex on T2 cells (human).
T4 construct: whole, on cells; also called T2 cells supplemented with homologous peptide CD163
The experiment in a line: flow cytometry, peptide-pulsed T2 cells.

Assay [5] deals with T5, HLA-A2 / homologous peptide P2RY8 complex on T2 cells (human).
T5 construct: whole, on cells; also called T2 cells supplemented with homologous peptide P2RY8
The experiment in a line: flow cytometry, peptide-pulsed T2 cells.

Assay [6] deals with T6, gp100 (human).
T6 construct: cell surface;cell surface complex; also called HLA-A2 / gp100 peptide complex on T2 cells
Nature of the assay: flow cytometry on peptide-pulsed T2 cells, scFv 100 nM.
Description: (§1) The resultant was washed two times in the AIM-V medium containing 20% FBS, the concentration thereof was adjusted to an adequate level with PBS containing 5% FBS, the LIVE/DEAD Fixable Dead Cell Stain Kit (Thermo Fisher Scientific) was added thereto, and the resultant was allowed to stand at 4° C. for 30 minutes. The cells were washed 2 times in PBS containing 5% FBS, the washed cells were divided into two groups, the cells in PBS containing 5% FBS were seeded on a 96-well U-bottom microplate at 10⁵ cells/well, and the plate was subjected to centrifugation, followed by removal of the supernatant. Anti-HLA/NY-ESO scFv diluted to 100 nM with PBS containing 5% FBS was added at 25 μl/well to one of the divided cells, and the resultant was allowed to stand at 4° C. for 30 minutes. The cells were washed 2 times in PBS containing 5% FBS, Penta-His Alexa Fluor488 (QIAGEN) diluted in PBS containing 5% FBS was added at 25 μl/well, and the resultant was allowed to stand at 4° C. for 30 minutes. The cells were washed 2 times in PBS containing 5% FBS, Anti-mouse-IgG Alexa Fluor488 (Thermo Fisher Scientific) diluted in PBS containing 5% FBS was added at 25 μl/well, and the resultant was allowed to stand at 4° C. for 30 minutes. The cells were washed 2 times in PBS containing 5% FBS, immobilized with Mildform 10 N (FUJIFILM Wako Pure Chemical Corporation) overnight, and resuspended in PBS containing 5% FBS. […] The cells were washed 2 times in PBS containing 5% FBS, immobilized with Mildform 10 N (FUJIFILM Wako Pure Chemical Corporation) overnight, and resuspended in PBS containing 5% FBS. The cell suspensions were subjected to detection using a flow cytometer (CantoII, Becton Dickinson). […] The standardized gMFI indicating the binding affinity of each scFv standardized with the amount of the HLA/peptide complex on the T2 cells was determined in accordance with the following equation.

Assay [7] deals with T7, HLA-A2/NY-ESO peptide complex presented on cells (human).
T7 construct: whole, on cells; also called HLA/NY-ESO; T2 cells supplemented with the NY-ESO peptide
The assay is described as above.
Description: as §1

The target in assay [8] is T6, gp100. The assay is described as above. The source holds these as a separate data set.
Description: (§2) The cells were washed 2 times in PBS containing 5% FBS, immobilized with Mildform 10 N (FUJIFILM Wako Pure Chemical Corporation) overnight, and resuspended in PBS containing 5% FBS. The cell suspensions were subjected to detection using a flow cytometer (CantoII, Becton Dickinson). […] The standardized gMFI indicating the binding affinity of each scFv standardized with the amount of the HLA/peptide complex on the T2 cells was determined in accordance with the following equation.
(§3) The 9-mer peptide shown in FIG. 2A was selected as a homologous peptide for evaluation of binding specificity of anti-HLA/NY-ESO scFv. […] The standardized gMFI indicating the binding affinity of each scFv standardized with the amount of the HLA/peptide complex on the T2 cells was determined in accordance with the following equation.
Assay [9] has as its target T7, HLA-A2/NY-ESO peptide complex presented …. The description is as above. The source holds these as a separate data set.
Description: as §2, §3
The target in assay [10] is T1, HLA-A2 / homologous peptide DOLPP1 …. Described as above.
Description: as §2, §3
Assay [11] deals with T2, HLA-A2 / homologous peptide IL20RB …. The assay is described as above.
Description: as §2, §3
Assay [12] deals with T3, HLA-A2 / homologous peptide PRKD2 …. The assay is described as above.
Description: as §2, §3
Assay [13] deals with T4, HLA-A2 / homologous peptide CD163 …. The assay is described as above.
Description: as §2, §3
The target in assay [14] is T5, HLA-A2 / homologous peptide P2RY8 …. Described as above.
Description: as §2, §3
Assay [15] deals with T8, HLA-A*0201/β2-microglobulin/NY-ESO peptide complex (human, biotinylated with E. coli biotin ligase at the added recognition sequence (biotinylated form used in the ELISA)).
T8 construct: also called HLA/NY-ESO; HLA-A2/NY-ESO
Nature of the assay: SPR (Biacore T200), scFv captured by anti-His antibody, HLA/NY-ESO as analyte, single cycle kinetics.
Description: With the use of Biacore T200, anti-HLA/NY-ESO scFv was captured as a ligand by the immobilized anti-His antibody, and the antigen was assayed as an analyte. As the antigen, HLA/NY-ESO prepared in 1)-1 was used. The anti-His antibody (His Capture kit, GE Healthcare) was immobilized on Sensor Chip CM5 (GE Healthcare) in accordance with the instructions of the kit. The anti-HLA/NY-ESO scFv constructs diluted to 0.5 μg/ml in HBS-EP+ (GE Healthcare) to be evaluated were brought into contact therewith at 10 μl/min for 60 seconds for immobilization. Thereafter, the samples were added to the HLA/NY-ESO analytes diluted to various levels with HBS-EP+ at a flow rate of 30 μl/min for 120 seconds and dissociation was assayed for 600 seconds.

Like-named read-outs stand apart in the source and are kept apart here.

B1: NYA-2035 (scFv)
scFv: GEVQLVESGGGVVQPGRSLTPSCSASGFSIRSYDIHWVRLAPGKGLEWVATISYDGSQKYFADSVKGRFTIFRDESENMVYLQMSGLRVEDTAVYHCARGSSGHYEAFDIWGQGTMVTVSSGGGGSGGGGSGGGGSQSVLTQPPSVSAAPGQKVTISCSGSSSNIGNWKVSWYQQLPGTAPKLLIYDNNKRPSGIPDRFSGSKSGTSATLGITGLQTGDEADYYCGTWDSSLSAPWVFGGGTKVTVLGAAAGAGGDYKDDDDKGAAAHHHHHH
For the molecule B1, the binding result in assay [1], in assay [2], in assay [3], in [4] and in [5] was “no binding (tested: 100 nM)” in each case. The “standardized gMFI” value amounted to 0.38 in the assay with gp100 [6]; 9.94 in assay [7]; 0.29 in the assay with gp100 [8]; 11.1 in [9]; 0.38 in assay [10]; 0.41 in assay [11]. For the same molecule, the “standardized gMFI” value in assay [12] stood at 0.33; in assay [13], 0.48; in assay [14], 0.69. In assay [15], this molecule yielded a Kd of 3.2 nM.

B2: NYA-2143 (scFv)
scFv: GEVQLVESGGGVVQPGRSLTPSCSASGFSIRSYDIHWVRLAPGKGLEWVATISYDGSQKYFADSVKGRFTIFRDESENMVYLQMSGLRVEDTAVYHCARGSSGHYEAFDIWGQGTMVTVSSGGGGSGGGGSGGGGSQSVLTQPPSVSAAPGQKVTISCSGSSSNIGNWYVSWYQRLPGTAPKLLIYDNNKRPSGIPDRFSGSKSGTSATLGITGLQTGDEADYYCGTWDSSLSAPWVFGGGTKVTVLGAAAGAGGDYKDDDDKGAAAHHHHHH
B2: the binding result in [1], in assay [2], in [3], in [4] and in assay [5] was “no binding (tested: 100 nM)” each time. Also, the “standardized gMFI” value with gp100 [6] is 0.38; in assay [7], 13.1; with gp100 [8] it was 0.31; in assay [9], 13.5; in [10], 0.38; in [11], 0.42. Moreover, the “standardized gMFI” value in assay [12] amounted to 0.32; in [13], 0.46; in assay [14], 0.69. The same molecule came in with a Kd in assay [15] of 0.9 nM.

B3: NYA-2060 (scFv)
scFv: GEVQLVESGGGLVQPGGSLRLSCAASGFSIRSYDIHWVRQAPGKGLEWVATISYDGSQKYYADSVKGRFTISRDESKNTLYLQMNSLRAEDTAVYHCARGSSGHYEAFDIWGQGTLVTVSSGGGGSGGGGSGGGGSQSVLTQPPSVSAAPGQKVTISCSGSSSNIGNWYVSWYQQLPGTAPKLLIYDNNKRPSGIPDRFSGSKSGTSATLGITGLQTGDEADYYCGTWDSSLSAPWVFGGGTKVTVLGAAAGAGGDYKDDDDKGAAAHHHHHH
notes: also called NYA-2060 tag adduct
As for B3, the binding result in [1], in assay [2], in assay [3], in assay [4] and in assay [5] was “no binding (tested: 100 nM)” throughout. The “standardized gMFI” value in the assay with gp100 [6] worked out at 0.41; in assay [7], 8.78; with gp100 [8], 0.32; in assay [9] it was 11.2; in [10], 0.42; in assay [11], 0.45. For the same molecule, the “standardized gMFI” value in assay [12] turned out to be 0.33; in assay [13], 0.47; in assay [14], 0.62. The Kd in assay [15] was found to be 1.1 nM.

B4: NYA-2045 (scFv)
scFv: GEVQLVESGGGLVQPGGSLRLSCAASGFSIRSYDIHWVRLAPGKGLEWVATISYDGSQKYYADSVKGRFTISRDESKNTLYLQMNSLRAEDTAVYHCARGSSGHYEAFDIWGQGTLVTVSSGGGGSGGGGSGGGGSQSVLTQPPSASGTPGQRVTISCSGSSSNIGNWYVSWYQQLPGTAPKLLIYDNNKRPSGVPDRFSGSKSGTSASLAISGLQSEDEADYYCGTWDSSLSAPWVFGGGTKLTVLGAAAGAGGDYKDDDDKGAAAHHHHHH
notes: also called NYA-2045 tag adduct
For B4, the binding result in assay [1], in assay [2], in assay [3], in assay [4] and in assay [5] was “no binding (tested: 100 nM)” in each case. Besides, the “standardized gMFI” value is 0.39 with gp100 [6]; 9.03 in assay [7]; 0.3 with gp100 [8]; 13.8 in assay [9]; 0.43 in [10]; 0.47 in [11]. In addition, the “standardized gMFI” value in assay [12] was found to be 0.34; in assay [13], 0.48; in assay [14], 0.58. Further, in assay [15], binding was put at a Kd of 0.8 nM.

B5: NYA-2044 (scFv)
scFv: GEVQLVESGGGLVQPGGSLRLSCAASGFSIRSYDIHWVRLAPGKGLEWVATISYDGSQKYYADSVKGRFTISRDESKNTLYLQMNSLRAEDTAVYHCARGSSGHYEAFDIWGQGTLVTVSSGGGGSGGGGSGGGGSQSVLTQPPSVSAAPGQKVTISCSGSSSNIGNWYVSWYQQLPGTAPKLLIYDNNKRPSGIPDRFSGSKSGTSATLGITGLQTGDEADYYCGTWDSSLSAPWVFGGGTKVTVLGAAAGAGGDYKDDDDKGAAAHHHHHH
notes: also called NYA-2044 tag adduct
In the case of B5, the binding result in assay [1], in [2], in [3], in assay [4] and in assay [5] was “no binding (tested: 100 nM)” in each case. In addition, the “standardized gMFI” value turned out to be 0.39 in the assay with gp100 [6]; 12.9 in assay [7]; 0.32 in the assay with gp100 [8]; 14.3 in assay [9]; 0.38 in [10]; 0.43 in assay [11]. Further, the results for the “standardized gMFI” value in assay [12], in [13] and in assay [14] were 0.33, 0.47 and 0.72, respectively. This molecule had a Kd in [15] of 0.8 nM.
